Laboratory results reported in publication PMC11487180, “PAK6 rescues pathogenic LRRK2-mediated ciliogenesis and centrosomal cohesion defects in a mutation-specific manner” (Cell Death & Disease, 2024).

Target: T1, AK7 (human, UniProt Q96M32 1-723)
T1 construct: AK7, human, recombinant protein on the HuProt array; source: bought: HuProt Human Proteome Microarray v4.0, Cambridge Protein Arrays (recombinant protein spotted on the array)
Assay: peptide or protein array; HuProt Human Proteome Microarray v4.0 (GST proteins spotted) incubated with recombinant PAK6 in 2% BSA, PBS, 0.05% Tween20 for 2 h at RT; detected with anti-PAK6 and fluorophore conjugated secondary antibody; hits by Z score > 2.5
Conditions: both partners purified

T1 sequence (Q96M32 whole entry): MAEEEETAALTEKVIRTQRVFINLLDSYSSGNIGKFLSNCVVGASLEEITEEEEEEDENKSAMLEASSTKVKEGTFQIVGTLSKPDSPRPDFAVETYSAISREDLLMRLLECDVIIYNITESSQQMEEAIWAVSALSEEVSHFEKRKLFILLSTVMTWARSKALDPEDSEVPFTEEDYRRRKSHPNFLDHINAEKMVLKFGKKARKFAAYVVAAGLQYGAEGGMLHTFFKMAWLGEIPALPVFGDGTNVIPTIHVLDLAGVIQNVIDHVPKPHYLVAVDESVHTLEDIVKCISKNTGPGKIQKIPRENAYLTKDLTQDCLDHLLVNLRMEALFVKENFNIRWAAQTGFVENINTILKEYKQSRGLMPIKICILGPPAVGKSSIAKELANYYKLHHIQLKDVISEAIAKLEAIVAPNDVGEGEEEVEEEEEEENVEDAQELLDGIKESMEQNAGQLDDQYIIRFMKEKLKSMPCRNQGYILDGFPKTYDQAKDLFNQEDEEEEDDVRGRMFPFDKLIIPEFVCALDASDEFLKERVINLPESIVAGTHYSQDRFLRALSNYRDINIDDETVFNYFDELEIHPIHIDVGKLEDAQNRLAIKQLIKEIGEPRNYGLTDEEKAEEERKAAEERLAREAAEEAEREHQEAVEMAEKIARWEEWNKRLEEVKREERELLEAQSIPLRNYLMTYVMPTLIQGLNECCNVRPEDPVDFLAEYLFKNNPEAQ

binding result: binds
B1: Recombinant full-length human PAK6 (ThermoFisher, #PR5307A) (enzyme, UniProt Q9NQU5 1-681, looked up)
chain: MFRKKKKKRPEISAPQNFQHRVHTSFDPKEGKFVGLPPQWQNILDTLRRPKPVVDPSRITRVQLQPMKTVVRGSAMPVDGYISGLLNDIQKLSVISSNTLRGRSPTSRRRAQSLGLLGDEHWATDPDMYLQSPQSERTDPHGLYLSCNGGTPAGHKQMPWPEPQSPRVLPNGLAAKAQSLGPAEFQGASQRCLQLGACLQSSPPGASPPTGTNRHGMKAAKHGSEEARPQSCLVGSATGRPGGEGSPSPKTRESSLKRRLFRSMFLSTAATAPPSSSKPGPPPQSKPNSSFRPPQKDNPPSLVAKAQSLPSDQPVGTFSPLTTSDTSSPQKSLRTAPATGQLPGRSSPAGSPRTWHAQISTSNLYLPQDPTVAKGALAGEDTGVVTHEQFKAALRMVVDQGDPRLLLDSYVKIGEGSTGIVCLAREKHSGRQVAVKMMDLRKQQRRELLFNEVVIMRDYQHFNVVEMYKSYLVGEELWVLMEFLQGGALTDIVSQVRLNEEQIATVCEAVLQALAYLHAQGVIHRDIKSDSILLTLDGRVKLSDFGFCAQISKDVPKRKSLVGTPYWMAPEVISRSLYATEVDIWSLGIMVIEMVDGEPPYFSDSPVQAMKRLRDSPPPKLKNSHKVSPVLRDFLERMLVRDPQERATAQELLDHPFLLQTGLPECLVPLIQLYRKQTSTC
notes: source: bought: ThermoFisher, #PR5307A
